Data from the supplement of paper PMC5998384.

What was measured:
[1] = test system: HeLa Kyoto; assay: solubility in G1/S (NP-40 vs SDS abundance) (log2 ratio); higher = more soluble; settings: cell cycle stage: G1/S
[2] = test system: HeLa Kyoto; assay: melting temperature (median over replicates), in situ; higher = more thermally stable
[3] = test system: HeLa Kyoto; assay: solubility change mitosis vs G1/S (difference of NP-40 vs SDS log2 ratios) (log2 ratio difference); higher = more soluble in mitosis
[4] = test system: HeLa Kyoto; assay: thermal stability score vs G1/S (z-score of summed log2 fold changes over temperatures); higher = more thermally stable than in G1/S
[5] = cell cycle stage: early G1 (4.5 h after nocodazole release)
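Throughout, for melting temperature (median over replicates), in situ: HeLa Kyoto cells synchronized by double thymidine or nocodazole block, proteins quantified by TMT10plex mass spectrometry, three independent biological replicates.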
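Throughout, for solubility change mitosis vs G1/S (difference of NP-40 vs SDS log2 ratios): synchronized HeLa Kyoto cells (double thymidine block for G1/S, nocodazole release for mitosis), protein amounts in NP-40 versus SDS lysates quantified by mass spectrometry, three biological replicates.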
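Throughout, for solubility in G1/S (NP-40 vs SDS abundance): HeLa Kyoto cells arrested at G1/S by double thymidine block, proteins quantified by TMT10plex mass spectrometry in mild NP-40 versus SDS extracts, three biological replicates.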
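Throughout, for thermal stability score vs G1/S (z-score of summed log2 fold changes over temperatures): synchronized HeLa Kyoto cells, proteins quantified by TMT10plex mass spectrometry, three biological replicates, mitosis taken 0.5 h after nocodazole release, G1/S directly after double thymidine block.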

With “MGAYARASGVCARGCLDSAGPWTMSRALRPPLPPLCFFLLLLAAAGARAGGYETCPTVQPNMLNVHLLPHTHDDVGWLKTVDQYFYGIKNDIQHAGVQYILDSVISALLADPTRRFIYVEIAFFSRWWHQQTNATQEVVRDLVRQGRLEFANGGWVMNDEAATHYGAIVDQMTLGLRFLEDTFGNDGRPRVAWHIDPFGHSREQASLFAQMGFDGFFFGRLDYQDKWVRMQKLEMEQVWRASTSLKPPTADLFTGVLPNGYNPPRNLCWDVLCVDQPLVEDPRSPEYNAKELVDYFLNVATAQGRYYRTNHTVMTMGSDFQYENANMWFKNLDKLIRLVNAQQAKGSSVHVLYSTPACYLWELNKANLTWSVKHDDFFPYADGPHQFWTGYFSSRPALKRYERLSYNFLQVCNQLEALVGLAANVGPYGSGDSAPLNEAMAVLQHHDAVSGTSRQHVANDYARQLAAGWGPCEVLLSNALARLRGFKDHFTFCQQLNISICPLSQTAARFQVIVYNPLGRKVNWMVRLPVSEGVFVVKDPNGRTVPSDVVIFPSSDSQAHPPELLFSASLPALGFSTYSVAQVPRWKPQARAPQPIPRRSWSPALTIENEHIRATFDPDTGLLMEIMNMNQQLLLPVRQTFFWYNASIGDNESDQASGAYIFRPNQQKPLPVSRWAQIHLVKTPLVQEVHQNFSAWCSQVVRLYPGQRHLELEWSVGPIPVGDTWGKEVISRFDTPLETKGRFYTDSNGREILERRRDYRPTWKLNQTEPVAGNYYPVNTRIYITDGNMQLTVLTDRSQGGSSLRDGSLELMVHRRLLKDDGRGVSEPLMENGSGAWVRGRHLVLLDTAQAAAAGHRLLAEQEVLAPQVVLAPGGGAAYNLGAPPRTQFSGLRRDLPPSVHLLTLASWGPEMVLLRLEHQFAVGEDSGRNLSAPVTLNLRDLFSTFTITRLQETTLVANQLREAASRLKWTTNTGPTPHQTPYQLDPANITLEPMEIRTFLASVQWKEVDG [MAN2B1]” the “solubility in G1/S (log2)” value [1] was 0.313, the melting temperature ([2]; cell cycle stage: G1/S) was 57.1 °C and the melting temperature ([2]; cell cycle stage: mitosis) was 56.6 °C. The “solubility change mitosis (log2)” value [3] was -0.109, the thermal stability score [4, 5] was -0.143 and the thermal stability score ([4]; cell cycle stage: mitosis) was -1.1.

In the case of “MGAYLSQPNTVKCSGDGVGAPRLPLPYGFSAMQGWRVSMEDAHNCIPELDSETAMFSVYDGHGGEEVALYCAKYLPDIIKDQKAYKEGKLQKALEDAFLAIDAKLTTEEVIKELAQIAGRPTEDEDEKEKVADEDDVDNEEAALLHEEATMTIEELLTRYGQNCHKGPPHSKSGGGTGEEPGSQGLNGEAGPEDSTRETPSQENGPTAKAYTGFSSNSERGTEAGQVGEPGIPTGEAGPSCSSASDKLPRVAKSKFFEDSEDESDEAEEEEEDSEECSEEEDGYSSEEAENEEDEDDTEEAEEDDEEEEEEMMVPGMEGKEEPGSDSGTTAVVALIRGKQLIVANAGDSRCVVSEAGKALDMSYDHKPEDEVELARIKNAGGKVTMDGRVNGGLNLSRAIGDHFYKRNKNLPPEEQMISALPDIKVLTLTDDHEFMVIACDGIWNVMSSQEVVDFIQSKISQRDENGELRLLSSIVEELLDQCLAPDTSGDGTGCDNMTCIIICFKPRNTAELQPESGKRKLEEVLSTEGAEENGNSDKKKKAKRD [PPM1G]”, the “solubility in G1/S (log2)” value [1] was 0.104, the melting temperature ([2]; cell cycle stage: G1/S) was 48.4 °C and the melting temperature ([2]; cell cycle stage: mitosis) was 49.4 °C. The “solubility change mitosis (log2)” value [3] was -0.0729, the thermal stability score [4, 5] was 2.65 and the thermal stability score ([4]; cell cycle stage: mitosis) was 8.41.

“MGCFFSKRRKADKESRPENEEERPKQYSWDQREKVDPKDYMFSGLKDETVGRLPGTVAGQQFLIQDCENCNIYIFDHSATVTIDDCTNCIIFLGPVKGSVFFRNCRDCKCTLACQQFRVRDCRKLEVFLCCATQPIIESSSNIKFGCFQWYYPELAFQFKDAGLSIFNNTWSNIHDFTPVSGELNWSLLPEDAVVQDYVPIPTTEELKAVRVSTEANRSIVPISRGQRQKSSDESCLVVLFAGDYTIANARKLIDEMVGKGFFLVQTKEVSMKAEDAQRVFREKAPDFLPLLNKGPVIALEFNGDGAVEVCQLIVNEIFNGTKMFVSESKETASGDVDSFYNFADIQMGI [RP2]” was tested, and the “solubility in G1/S (log2)” value [1] was -0.343, the melting temperature ([2]; cell cycle stage: G1/S) was 51.6 °C and the melting temperature ([2]; cell cycle stage: mitosis) was 51.1 °C. The “solubility change mitosis (log2)” value [3] was -0.158, the thermal stability score [4, 5] was -0.738 and the thermal stability score ([4]; cell cycle stage: mitosis) was -0.982.

In the case of “MGCIKSKGKDSLSDDGVDLKTQPVRNTERTIYVRDPTSNKQQRPVPESQLLPGQRFQTKDPEEQGDIVVALYPYDGIHPDDLSFKKGEKMKVLEEHGEWWKAKSLLTKKEGFIPSNYVAKLNTLETEEWFFKDITRKDAERQLLAPGNSAGAFLIRESETLKGSFSLSVRDFDPVHGDVIKHYKIRSLDNGGYYISPRITFPCISDMIKHYQKQADGLCRRLEKACISPKPQKPWDKDAWEIPRESIKLVKRLGAGQFGEVWMGYYNNSTKVAVKTLKPGTMSVQAFLEEANLMKTLQHDKLVRLYAVVTREEPIYIITEYMAKGSLLDFLKSDEGGKVLLPKLIDFSAQIAEGMAYIERKNYIHRDLRAANVLVSESLMCKIADFGLARVIEDNEYTAREGAKFPIKWTAPEAINFGCFTIKSDVWSFGILLYEIVTYGKIPYPGRTNADVMTALSQGYRMPRVENCPDELYDIMKMCWKEKAEERPTFDYLQSVLDDFYTATEGQYQQQP [LYN]”, the “solubility in G1/S (log2)” value [1] was -0.416, the melting temperature ([2]; cell cycle stage: G1/S) was 51.1 °C and the melting temperature ([2]; cell cycle stage: mitosis) was 50.7 °C. For the same sequence, the “solubility change mitosis (log2)” value [3] was -0.0796, the thermal stability score [4, 5] was 1.11 and the thermal stability score ([4]; cell cycle stage: mitosis) was 0.805.

With “MGDAADPREMRKTFIVPAIKPFDHYDFSRAKIACNLAWLVAKAFGTENVPEELQEPFYTDQYDQEHIKPPVVNLLLSAELYCRAGSLILKSDAAKPLLGHDAVIQALAQKGLYVTDQEKLVTERDLHKKPIQMSAHLAMIDTLMMAYTVEMVSIEKVIACAQQYSAFFQATDLPYDIEDAVMYWINKVNEHLKDIMEQEQKLKEHHTVEAPGGQKSPSKWFWKLVPARYRKEQTLLKQLPCIPLVENLLKDGTDGCALAALIHFYCPDVVRLEDICLKETMSLADSLYNLQLIQEFCQEYLNQCCHFTLEDMLYAASSIKSNYLVFMAELFWWFEVVKPSFVQPRVVRPQGAEPVKDMPSIPVLNAAKRNVLDSSSDFPSSGEGATFTQSHHHLPSRYSRPQAHSSASGGIRRSSSMSYVDGFIGTWPKEKRSSVHGVSFDISFDKEDSVQRSTPNRGITRSISNEGLTLNNSHVSKHIRKNLSFKPINGEEEAESIEEELNIDSHSDLKSCVPLNTNELNSNENIHYKLPNGALQNRILLDEFGNQIETPSIEEALQIIHDTEKSPHTPQPDQIANGFFLHSQEMSILNSNIKLNQSSPDNVTDTKGALSPITDNTEVDTGIHVPSEDIPETMDEDSSLRDYTVSLDSDMDDASKFLQDYDIRTGNTREALSPCPSTVSTKSQPGSSASSSSGVKMTSFAEQKFRKLNHTDGKSSGSSSQKTTPEGSELNIPHVVAWAQIPEETGLPQGRDTTQLLASEMVHLRMKLEEKRRAIEAQKKKMEAAFTKQRQKMGRTAFLTVVKKKGDGISPLREEAAGAEDEKVYTDRAKEKESQKTDGQRSKSLADIKESMENPQAKWLKSPTTPIDPEKQWNLASPSEETLNEGEILEYTKSIEKLNSSLHFLQQEMQRLSLQQEMLMQMREQQSWVISPPQPSPQKQIRDFKPSKQAGLSSAIAPFSSDSPRPTHPSPQSSNRKSASFSVKSQRTPRPNELKITPLNRTLTPPRSVDSLPRLRRFSPSQVPIQTRSFVCFGDDGEPQLKESKPKEEVKKEELESKGTLEQRGHNPEEKEIKPFESTVSEVLSLPVTETVCLTPNEDQLNQPTEPPPKPVFPPTAPKNVNLIEVSLSDLKPPEKADVPVEKYDGESDKEQFDDDQKVCCGFFFKDDQKAENDMAMKRAALLEKRLRREKETQLRKQQLEAEMEHKKEETRRKTEEERQKKEDERARREFIRQEYMRRKQLKLMEDMDTVIKPRPQVVKQKKQRPKSIHRDHIESPKTPIKGPPVSSLSLASLNTGDNESVHSGKRTPRSESVEGFLSPSRCGSRNGEKDWENASTTSSVASGTEYTGPKLYKEPSAKSNKHIIQNALAHCCLAGKVNEGQKKKILEEMEKSDANNFLILFRDSGCQFRSLYTYCPETEEINKLTGIGPKSITKKMIEGLYKYNSDRKQFSHIPAKTLSASVDAITIHSHLWQTKRPVTPKKLLPTKA [CAMSAP2]” the “solubility in G1/S (log2)” value [1] was 0.00851, the melting temperature ([2]; cell cycle stage: G1/S) was 51.7 °C and the melting temperature ([2]; cell cycle stage: mitosis) was 53 °C. The “solubility change mitosis (log2)” value [3] was -0.0823, the thermal stability score [4, 5] was 1.04 and the thermal stability score ([4]; cell cycle stage: mitosis) was 2.88.

“MGDMANNSVAYSGVKNSLKEANHDGDFGITLAELRALMELRSTDALRKIQESYGDVYGICTKLKTSPNEGLSGNPADLERREAVFGKNFIPPKKPKTFLQLVWEALQDVTLIILEIAAIVSLGLSFYQPPEGDNALCGEVSVGEEEGEGETGWIEGAAILLSVVCVVLVTAFNDWSKEKQFRGLQSRIEQEQKFTVIRGGQVIQIPVADITVGDIAQVKYGDLLPADGILIQGNDLKIDESSLTGESDHVKKSLDKDPLLLSGTHVMEGSGRMVVTAVGVNSQTGIIFTLLGAGGEEEEKKDEKKKEKKNKKQDGAIENRNKAKAQDGAAMEMQPLKSEEGGDGDEKDKKKANLPKKEKSVLQGKLTKLAVQIGKAGLLMSAITVIILVLYFVIDTFWVQKRPWLAECTPIYIQYFVKFFIIGVTVLVVAVPEGLPLAVTISLAYSVKKMMKDNNLVRHLDACETMGNATAICSDKTGTLTMNRMTVVQAYINEKHYKKVPEPEAIPPNILSYLVTGISVNCAYTSKILPPEKEGGLPRHVGNKTECALLGLLLDLKRDYQDVRNEIPEEALYKVYTFNSVRKSMSTVLKNSDGSYRIFSKGASEIILKKCFKILSANGEAKVFRPRDRDDIVKTVIEPMASEGLRTICLAFRDFPAGEPEPEWDNENDIVTGLTCIAVVGIEDPVRPEVPDAIKKCQRAGITVRMVTGDNINTARAIATKCGILHPGEDFLCLEGKDFNRRIRNEKGEIEQERIDKIWPKLRVLARSSPTDKHTLVKGIIDSTVSDQRQVVAVTGDGTNDGPALKKADVGFAMGIAGTDVAKEASDIILTDDNFTSIVKAVMWGRNVYDSISKFLQFQLTVNVVAVIVAFTGACITQDSPLKAVQMLWVNLIMDTLASLALATEPPTESLLLRKPYGRNKPLISRTMMKNILGHAFYQLVVVFTLLFAGEKFFDIDSGRNAPLHAPPSEHYTIVFNTFVLMQLFNEINARKIHGERNVFEGIFNNAIFCTIVLGTFVVQIIIVQFGGKPFSCSELSIEQWLWSIFLGMGTLLWGQLISTIPTSRLKFLKEAGHGTQKEEIPEEELAEDVEEIDHAERELRRGQILWFRGLNRIQTQIRVVNAFRSSLYEGLEKPESRSSIHNFMTHPEFRIEDSEPHIPLIDDTDAEDDAPTKRNSSPPPSPNKNNNAVDSGIHLTIEMNKSATSSSPGSPLHSLETSL [ATP2B1]” was tested, and the “solubility in G1/S (log2)” value [1] was -0.179, the melting temperature ([2]; cell cycle stage: G1/S) was 54.1 °C and the melting temperature ([2]; cell cycle stage: mitosis) was 53.4 °C. For the same sequence, the “solubility change mitosis (log2)” value [3] was -0.103, the thermal stability score [4, 5] was 0.336 and the thermal stability score ([4]; cell cycle stage: mitosis) was 1.72.
